T1: Dust mite allergen Der p 2 (dust mite (Dermatophagoides pteronyssinus)) (UniProt P49278)
T1 sequence (looked up): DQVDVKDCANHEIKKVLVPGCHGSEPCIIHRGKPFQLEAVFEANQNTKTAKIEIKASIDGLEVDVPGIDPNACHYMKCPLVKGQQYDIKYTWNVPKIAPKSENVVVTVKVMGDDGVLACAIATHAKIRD


Columns and labels:
Helminth lysate [1] = assay: ELISA on helminth lysate; (++) 10-100 x background
Helminth lysate [2] = assay: direct fluorescent ELISA on helminth lysate
Helminth lysate [3] = assay: ELISA on helminth lysate; (+++) >100 x background
[4] = biological target: T1, Dust mite allergen Der p 2 (dust mite (Dermatophagoides pteronyssinus)); assay: direct ELISA, Der p2 coated at 5 µg/mL, two-fold dilutions of IgE, anti-human IgE secondary, OD 450 nm

Row | Binder | fold over background (Helminth lysate [1]) [fold] | RFU (Helminth lysate [2]) [RFU] | fold over background (times background) (Helminth lysate [2]) | fold over background (Helminth lysate [3]) [fold] | EC50 [4] [ng/mL]
1 | Human IgE mAb 1A5 (antibody, V domains shown) VH: EVQLVESGGGVVQPGRSLRLSCAGSGFTFSTYVMHWVRQAPGKGLEWVAVISYDGTNKYYADSMKGRFTISRDNSKNTLYLQLNRLRAEDTAVYYCAKTMDDSSGYYCPDYW VL: SSELTQDPAVSVALGQTVKITCQGDSLRNYFANWYQQKPGQAPVLVIYGQNNRPSGIPDRFSGSTSGNTGSLTITGAQAEDEADYYCNSRDSSGNHLYVFG | 10 to 100 | – | – | – | –
2 | Human IgE mAb 11H12 (antibody, V domains shown) VH: QVQLVESGGDLVTPGGSLRLSCAASGFAFSGYYMSWIRQAPGKGLEWISYINSNGLTISYADSVKGRFTVSRDNAKNSLFLQMSSLRAEDTAIYYCARDWGTTLVTFDLWGQGTLVTVSS VL: QPVLTQSSSASASMGSSAKLTCTLSSGHRGYNIAWLQQHPGKAPLYLTNLEGSDSYKNDRLTVSSSGADRYLTISNLQPEDEATYYCFTWDSDSRVFGGGTHLTVL | 10 to 100 | 1000 | 10 | – | –
3 | Human IgE mAb 7G12 (antibody, V domains shown) VH: QVHLVQSGVDVKKPGASVKLSCKTSGYTFTNYGITWVRQAPGQGLEWMGWISTYDGATNYSQNLQGRIIMTTDTSKRTAYLQMRSLRSDDTAVYYCARGRDSPDHWGQGTLVTVSS VL: DIQMTQSPSTLSASVGDRVTITCRASQSINRWLAWYQQKPGTAPKLLIFKASTLDSGVPARFSGTGSETEFSLTINSLQPDDFATYYCQQYDHFPHTFGPGTKLDIK | – | 40000 | – | > 100 | –
4 | Human IgE mAb 2G1 (antibody) VH: EFQLVESGGGLIQPGGSLRLSCAGSGFTVTTNYMAWVRQAPGKGLEWVSTIYSAGSTFYADSVKGRFTISGDNSKNTLYLQMGSLRAEDTAVYYCARENPAQDAFDIWAKDTMVTVSSASF VL: EFSYELTQPLSVSVALGQTARITCGGNNIGSKNVHWYQQKPGLAPVLVIYRDSNRPSGIPARFSGSSSGNTATLTISSAQAGDEADYYCHVWDTSTVVFGGGTKLTVLSLPKAAPSVTLFPPSSEELQANKATLVCLISDFYPGAVTVAWKADSSPVKAGVETTTPSKQSNNKYAASSYLSLTPEQWKSHKSYSCQVTHEGSTVEKTVAPTECS | – | – | – | – | 7.1

Reference: patent US20190353661A1
